Results on one substance are retold here after US5891663.

The experiment deals with precursor of the polypeptide that induces IFN-γ production in immunocompetent cells (human).

Consider “interleukin-1β converting enzyme (from UniProt P29466)”, for which the conversion of the precursor into the active polypeptide; IFN-γ content (IU/ml) induced in KG-1 cells by the reaction mixture, with Western blot time course was determined as 4000 IU/ml.
